Experimental data: patent US20240398902A1

What was measured:
[1] = biological target: Type I IFN receptor (IFNAR1 and IFNAR2) on HEK-Blue 293 reporter cells (UniProt P17181); assay: cell-based or functional assay
[2] = biological target: Type II IFN receptor (IFNGR1 and IFNGR2) on HEK-Blue 293 reporter cells (UniProt P15260); assay: cell-based or functional assay
Chain of Type II IFN receptor (IFNGR1 and IFNGR2) on HEK-Blue 293 reporter cells (P15260 18-489 limits assumed, chain 1 of 2): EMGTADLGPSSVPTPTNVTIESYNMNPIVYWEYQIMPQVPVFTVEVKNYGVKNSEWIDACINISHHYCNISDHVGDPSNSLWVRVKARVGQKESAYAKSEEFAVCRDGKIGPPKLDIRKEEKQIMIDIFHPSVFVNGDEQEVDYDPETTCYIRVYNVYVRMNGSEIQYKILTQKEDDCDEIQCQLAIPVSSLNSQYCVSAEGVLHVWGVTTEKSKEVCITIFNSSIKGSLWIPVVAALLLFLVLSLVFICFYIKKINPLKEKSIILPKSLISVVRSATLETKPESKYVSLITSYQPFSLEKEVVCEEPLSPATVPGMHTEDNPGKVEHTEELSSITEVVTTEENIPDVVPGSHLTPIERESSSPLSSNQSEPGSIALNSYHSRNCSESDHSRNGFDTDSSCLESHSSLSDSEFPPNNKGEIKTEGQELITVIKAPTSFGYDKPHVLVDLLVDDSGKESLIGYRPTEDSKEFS
Chain of Type II IFN receptor (IFNGR1 and IFNGR2) on HEK-Blue 293 reporter cells (P38484 22-337 limits assumed, chain 2 of 2, further chain): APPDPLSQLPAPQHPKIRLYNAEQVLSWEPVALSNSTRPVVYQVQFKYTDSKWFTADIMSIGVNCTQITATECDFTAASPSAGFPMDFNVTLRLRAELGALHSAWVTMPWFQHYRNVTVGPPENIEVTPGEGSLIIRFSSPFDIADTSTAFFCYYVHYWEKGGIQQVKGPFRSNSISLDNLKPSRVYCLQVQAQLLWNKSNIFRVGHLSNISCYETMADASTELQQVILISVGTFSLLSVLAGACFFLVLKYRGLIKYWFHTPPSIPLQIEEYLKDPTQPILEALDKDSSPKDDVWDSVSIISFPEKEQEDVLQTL

Chain of Type I IFN receptor (IFNAR1 and IFNAR2) on HEK-Blue 293 reporter cells (P17181 28-557 limits assumed, chain 1 of 2): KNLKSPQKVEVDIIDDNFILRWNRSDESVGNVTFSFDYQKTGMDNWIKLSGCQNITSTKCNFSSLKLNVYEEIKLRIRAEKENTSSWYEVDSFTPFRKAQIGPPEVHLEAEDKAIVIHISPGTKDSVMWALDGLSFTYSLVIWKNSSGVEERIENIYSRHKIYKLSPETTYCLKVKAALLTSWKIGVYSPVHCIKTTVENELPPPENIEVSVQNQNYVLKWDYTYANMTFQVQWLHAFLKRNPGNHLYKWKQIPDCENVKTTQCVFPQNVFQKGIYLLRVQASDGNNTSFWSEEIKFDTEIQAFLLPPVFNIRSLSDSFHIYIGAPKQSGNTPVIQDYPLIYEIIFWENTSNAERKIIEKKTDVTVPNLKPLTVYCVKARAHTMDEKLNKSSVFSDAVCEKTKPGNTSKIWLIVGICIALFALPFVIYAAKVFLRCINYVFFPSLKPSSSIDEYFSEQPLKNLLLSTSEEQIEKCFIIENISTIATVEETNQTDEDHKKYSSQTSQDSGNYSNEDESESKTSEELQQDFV
Chain of Type I IFN receptor (IFNAR1 and IFNAR2) on HEK-Blue 293 reporter cells (P48551 27-515 limits assumed, chain 2 of 2, further chain): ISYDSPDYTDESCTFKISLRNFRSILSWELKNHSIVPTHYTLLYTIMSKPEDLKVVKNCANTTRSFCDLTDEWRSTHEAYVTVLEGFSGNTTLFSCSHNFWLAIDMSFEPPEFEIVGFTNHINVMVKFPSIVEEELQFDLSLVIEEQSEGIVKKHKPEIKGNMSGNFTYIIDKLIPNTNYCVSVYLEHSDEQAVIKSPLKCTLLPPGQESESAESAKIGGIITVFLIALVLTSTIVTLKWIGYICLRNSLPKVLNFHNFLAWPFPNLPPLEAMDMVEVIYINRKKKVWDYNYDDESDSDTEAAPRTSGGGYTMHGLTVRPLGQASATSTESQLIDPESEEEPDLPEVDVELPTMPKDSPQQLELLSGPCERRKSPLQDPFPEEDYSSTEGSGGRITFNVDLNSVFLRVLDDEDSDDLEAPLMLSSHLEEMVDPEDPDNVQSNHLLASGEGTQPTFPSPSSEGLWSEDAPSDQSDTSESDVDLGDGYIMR

Substance	EC50 of SEAP reporter response, HEK-Blue IFN reporter cells [1]	MHC I (HLA I) expression, MFI by FACS against untreated 293T cells (fold increase) [1]	EC50 of SEAP reporter response, HEK-Blue IFN reporter cells [2]
soluble IFNβ (from UniProt P01574 22-187) (ligand)	0.9 pM	9	
soluble IFNγ (from UniProt P01579 24-166) (ligand)			7.1 pM
